Reference: patent US20150038430A1 (published 2015)
Bridge positions count the residues as written; N and C are the ends.

Key:
Test in all cases: MS-based binding affinity
Bcl-xL = Bcl-xL (UniProt Q07817 1-212)
Bcl-2 = target: Bcl-2
Mcl-1 = target: Mcl-1

Chain of Bcl-xL (Q07817 1-212): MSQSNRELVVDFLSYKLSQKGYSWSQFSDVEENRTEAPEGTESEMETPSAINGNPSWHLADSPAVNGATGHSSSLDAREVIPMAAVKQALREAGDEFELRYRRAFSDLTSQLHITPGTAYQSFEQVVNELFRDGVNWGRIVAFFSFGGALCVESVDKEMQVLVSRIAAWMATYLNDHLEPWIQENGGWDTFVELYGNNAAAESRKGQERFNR

Binder	Kd (Bcl-xL)	Kd (Bcl-2)	Kd (Mcl-1)
Ac-IWIAQELRXIGDXFNAYYARR-NH2 (staple 9-13; not fully specified (residues 9, 13); printed as Ac-IWIAQELR$IGD$FNAYYARR-NH2) [SP-4 (BIM-BH3 peptidomimetic macrocycle, Ac-IWIAQELR$IGD$FNAYYARR-NH2)]	< 100 nM		
Ac-IWIAQELRXIGDXFNAYYARR-NH2 (staple 9-13; not fully specified (residues 9, 13); printed as Ac-IWIAQELR$IGD$FNAYYARR-NH2) [SP-4 BIM Stapled]		< 100 nM	< 100 nM
